From the supplement of paper PMC9732359
± gives the uncertainty stated by the source.

Test: protein stability index of a GFP-peptide fusion (yeast GPS) (PSI 1-4); higher = more stable; sorted into four equal gates, so the index is relative within each strain
In short: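 The protein stability index combines read frequencies across sorting gates, each weighted by its gate number and then summed. To obtain those frequencies, a pooled yeast library of GFP fusions to tiled 17-residue yeast protein peptides, on a plasmid also expressing Cherry, was grown to mid-log phase in leucine-free medium. The cells were sorted into four equal gates by GFP/Cherry ratio before plasmid amplification by PCR and Illumina sequencing.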

Sequence | protein stability index (doa10∆) | protein stability index (pdr5∆) | protein stability index (san1∆) | protein stability index (ubr1∆)
EPFFLVTKITDMLLHKY [SRB8] | 2.86 ± 0.11 | 2.52 ± 0.088 | 2.88 ± 0.061 | 2.72 ± 0.083
EPIKVNVRVGQAVETVG [RPN1] | 1.41 ± 0.16 | 2.26 ± 0.11 | 2.47 ± 0.11 | 2.44 ± 0.15
EPLAPGNDNLIKAPTVA [YLR335W/NUP2] | 2.57 ± 0.067 | 2.77 ± 0.064 | 2.53 ± 0.053 | 2.88 ± 0.059
EPLTEIKNVIVSNRVAA [RPP0] | 1.6 ± 0.076 | 2.1 ± 0.062 | 1.77 ± 0.11 | 1.95 ± 0.07
EPMKQLNATKISPSAPS [YAR002W/NUP60] | 2.73 ± 0.075 | 2.91 ± 0.083 | 2.96 ± 0.062 | 2.77 ± 0.078
EPSDLRSWTLTSEMKVL [YGL100W/SEH1] | 2.92 ± 0.049 | 2.77 ± 0.045 | 3.16 ± 0.052 | 3.37 ± 0.045
EPYVAYGYPSYSTIRQL [RPL7A] | 1.87 ± 0.044 | 2.14 ± 0.048 | 2.14 ± 0.058 | 2.23 ± 0.036
EQDILDLIAEQVVTDYN [SSN2] | 3 ± 0.17 | 3.44 ± 0.12 | 3.08 ± 0.18 | 2.47 ± 0.14
EQDPYSNASQMGNTGSG [RPB3] | 2.7 ± 0.13 | 2.45 ± 0.14 | 2.21 ± 0.2 | 2.95 ± 0.1
EQGIELEHIDSKSEFAH [FAS2] | 2.88 ± 0.096 | 2.15 ± 0.12 | 3.08 ± 0.13 | 2.15 ± 0.16
EQRHLKRELKRAQEEVK [RPT3] | 3.13 ± 0.077 | 3.37 ± 0.12 | 2.95 ± 0.089 | 3.17 ± 0.078
ERAELETDEYISYTSHI [RPN1] | 3.14 ± 0.071 | 3.19 ± 0.076 | 3.01 ± 0.065 | 3.19 ± 0.05
ERNEQEREIMNDHSKSA [SWI3] | 3.27 ± 0.069 | 3.33 ± 0.066 | 3.1 ± 0.092 | 3.48 ± 0.084
ERPPLLPILPIQRLRLL [YOR098C/NUP1] | 1.34 ± 0.1 | 2.36 ± 0.12 | 1.95 ± 0.18 | 1.9 ± 0.11
ERQQENLLIQRLNFNQN [SWI3] | 3.26 ± 0.071 | 3.38 ± 0.073 | 3.2 ± 0.042 | 3.19 ± 0.055
ERRMQVTAEDFKQAKER [RPT2] | 3.02 ± 0.1 | 3.29 ± 0.11 | 3 ± 0.088 | 3.56 ± 0.12
ERSLAVKYINFGKTVKD [RPC31] | 3.09 ± 0.088 | 3.18 ± 0.1 | 2.99 ± 0.046 | 2.88 ± 0.058
ERSLRQKYNLLHVLPTL [SNM1] | 1.22 ± 0.07 | 1.3 ± 0.13 | 2.03 ± 0.28 | 1.35 ± 0.17
ERTKLQEHTIFTQLKKN [SNU114] | 1.46 ± 0.057 | 2 ± 0.056 | 1.97 ± 0.084 | 1.58 ± 0.039
ESAAVYNGRGARERKTA [SNF2] | 2.55 ± 0.067 | 2.3 ± 0.057 | 2.76 ± 0.06 | 2.78 ± 0.06
ESELSLLEETQAKLKKN [SMC4] | 2.7 ± 0.17 | 3.37 ± 0.2 | 2.88 ± 0.23 | 3.11 ± 0.14
ESFESYHNLTTHNSYEK [RPN6] | 3.19 ± 0.068 | 3.17 ± 0.065 | 2.84 ± 0.075 | 3.28 ± 0.044
ESGEDEAEFSLRELSCC [RRP46] | 3.24 ± 0.05 | 3.12 ± 0.075 | 3.2 ± 0.064 | 3.16 ± 0.066
ESGLRPVSLLNSQLVGK [PCI8] | 3.31 ± 0.13 | 3.43 ± 0.096 | 3.27 ± 0.061 | 3.09 ± 0.27
ESGLVNADLDVKDELMF [RPO21] | 3.16 ± 0.059 | 3.27 ± 0.06 | 3.23 ± 0.059 | 3.3 ± 0.038
ESISQTPISNEQTEGEP [SRP68] | 3.21 ± 0.1 | 3.29 ± 0.16 | 3.16 ± 0.071 | 3.19 ± 0.065
ESLQKRELLKSQVEDFT [SIR3] | 3.15 ± 0.045 | 3.22 ± 0.054 | 3.12 ± 0.048 | 3.27 ± 0.043

Sequence | protein stability index (doa10∆) | protein stability index (pdr5∆) | protein stability index (san1∆) | protein stability index (ubr1∆)
ESLSEEHASLLVRDSKP [MED8] | 2.53 ± 0.084 | 3.04 ± 0.12 | 2.69 ± 0.086 | 2.59 ± 0.099
ESNNKKYPIFTGESWVK [YDL088C/ASM4] | 2.73 ± 0.062 | 2.59 ± 0.081 | 2.33 ± 0.083 | 2.74 ± 0.06
ETDGKHGKRRSQVVETH [YMR129W/POM152] | 3.27 ± 0.11 | 2.93 ± 0.097 | 3.21 ± 0.056 | 3.11 ± 0.048
ETEKFALERNWPIVNSK [RPN12] | 3.19 ± 0.095 | 3.25 ± 0.12 | 3.13 ± 0.069 | 3.11 ± 0.086
ETERLISQSQLGKFKNI [SIN4] | 3.09 ± 0.13 |  |  | 
ETHPDNSNKQAVAILAD [BRR2] | 2.78 ± 0.053 | 2.93 ± 0.049 | 2.81 ± 0.045 | 2.98 ± 0.038
ETIQADLNHVTEELQTQ [SMC2] | 3.21 ± 0.14 | 3.21 ± 0.06 | 3.02 ± 0.066 | 3.01 ± 0.1
ETLGDILKRDFELVSDL [ECM29] | 3.27 ± 0.14 | 3.39 ± 0.17 | 2.95 ± 0.22 | 3.08 ± 0.17
ETLNDTIERSLIEEEVE [YCS4] | 3.42 ± 0.14 | 3.43 ± 0.082 | 3.31 ± 0.056 | 3.33 ± 0.097
ETPKSNNSLSYHSGRLL [ITC1] | 3.22 ± 0.14 | 3.06 ± 0.12 | 2.63 ± 0.13 | 3.32 ± 0.078
ETPNQDATYDSALELVG [RPN6] | 2.62 ± 0.088 | 2.86 ± 0.072 | 2.61 ± 0.081 | 2.6 ± 0.1
ETQPGCNEEQTLEAKIG [RPO31] | 3.21 ± 0.073 | 3.33 ± 0.069 | 2.96 ± 0.057 | 3.24 ± 0.053
ETSSFGSMFSGDNTSDV [RRI1] | 3.48 ± 0.11 | 3.08 ± 0.13 | 3.25 ± 0.063 | 2.66 ± 0.15
ETTTQFKATHILDFGPG [FAS1] | 2.44 ± 0.081 | 2 ± 0.094 | 2.16 ± 0.084 | 2.25 ± 0.054
ETYVASYVVPRLYLKDQ [ECM29] | 2.46 ± 0.1 | 1.93 ± 0.088 | 1.91 ± 0.24 | 2.32 ± 0.054
EVCAKMPNIELYLKVIP [SSN2] | 2.71 ± 0.047 | 2.51 ± 0.045 | 2.48 ± 0.052 | 2.26 ± 0.039
EVDSASDFISKLEYPHT [RPN3] | 2.96 ± 0.087 | 3.09 ± 0.087 | 2.93 ± 0.075 | 3.02 ± 0.079
EVEEDDEDDDQPMISPD [SWI3] | 3.21 ± 0.099 | 3.45 ± 0.056 | 3.33 ± 0.046 | 3.15 ± 0.06
EVGMKVQSGQIYINKSV [RET1] | 2.83 ± 0.074 | 3.05 ± 0.073 | 2.6 ± 0.082 | 3.08 ± 0.069
EVLCSRIIEKSVRRSGA [RRP45] | 2.38 ± 0.066 | 3.21 ± 0.076 | 2.41 ± 0.1 | 2.94 ± 0.1
EVLLAGFGRKGKAKGDI [RPS23A] | 3.41 ± 0.099 | 3.24 ± 0.093 | 3.41 ± 0.045 | 3.22 ± 0.071
EVRDATLNNIFRFDSIQ [GRR1] | 3.18 ± 0.26 |  | 3.38 ± 0.2 | 3.24 ± 0.24
EVRILPRQRMEEVVSND [PRP8] | 2.52 ± 0.11 | 2.73 ± 0.084 | 2.69 ± 0.064 | 2.57 ± 0.084
EVRQETQPKAEATQDDD [NUT1] | 3.08 ± 0.13 | 3.18 ± 0.071 | 3.4 ± 0.065 | 3.16 ± 0.074
EVSMNSIFAMGLCGAGT [RPN1] | 1.68 ± 0.047 | 1.61 ± 0.058 | 1.49 ± 0.091 | 1.23 ± 0.052
EVSQFLIENGASVRIKD [NAS6] | 3.08 ± 0.21 | 2.39 ± 0.2 |  | 2.71 ± 0.12
EVVSEAINIMNRSNDAL [FAS2] | 3.32 ± 0.12 | 3.44 ± 0.13 | 3.44 ± 0.049 | 3.31 ± 0.16
